Test [1] concerns the target JetAB complex (JetA2B4), full-length JetA and JetB (Pseudomonas aeruginosa PA14). Put plainly: SEC + SEC-MALS.
The target is the same in test [2]. Put plainly: SEC + SEC-MALS. This is another data set of the same source.
The target in test [3] is JetC (Wadjet SMC ATPase subunit, P. aeruginosa PA14), tagless wild type (Pseudomonas aeruginosa PA14). Put plainly: SEC + SEC-MALS.
In test [4] the target is JetAB complex (JetA2B4), full-length JetA and JetB (Pseudomonas aeruginosa PA14). Put plainly: SEC-MALS.
Test [5] deals with JetD (Wadjet nuclease subunit, P. aeruginosa PA14) (Pseudomonas aeruginosa PA14). In words: SEC + SEC-MALS.

Where two headings read alike, the source gives them in different places.

With “JetC (Wadjet SMC ATPase subunit, P. aeruginosa PA14), tagless wild type (natural protein)”, the stoichiometry N (JetC per JetA2B4) in test [1] amounted to 4; in test [2], 2. For the same substance, the stoichiometry N in test [3] stood at 2.

Consider “JetC^head (JetC^E1022Q,L783A 1-284-[…]-781-1101) (domain or fragment)”, for which the stoichiometry N (JetC^head per JetA2B4) in test [4] amounted to 2.

With “JetD (Wadjet nuclease subunit, P. aeruginosa PA14) (natural protein)”, the stoichiometry N in test [5] is 2.

(Values after article PMC9637719.)
